Assay results reported in patent US20230416333A1 (SHATTUCK LABS, published 2023).

Columns and labels:
[1] = biological target: T1, CD19 expressed on the cell surface (UniProt P15391 20-556); assay: flow cytometry on HEK293-CD19 cells, anti-Fc detection
T1 construct: whole, on cells; also called HEK293-CD19 cells; CD19 on Daudi cells
T1 sequence (looked up): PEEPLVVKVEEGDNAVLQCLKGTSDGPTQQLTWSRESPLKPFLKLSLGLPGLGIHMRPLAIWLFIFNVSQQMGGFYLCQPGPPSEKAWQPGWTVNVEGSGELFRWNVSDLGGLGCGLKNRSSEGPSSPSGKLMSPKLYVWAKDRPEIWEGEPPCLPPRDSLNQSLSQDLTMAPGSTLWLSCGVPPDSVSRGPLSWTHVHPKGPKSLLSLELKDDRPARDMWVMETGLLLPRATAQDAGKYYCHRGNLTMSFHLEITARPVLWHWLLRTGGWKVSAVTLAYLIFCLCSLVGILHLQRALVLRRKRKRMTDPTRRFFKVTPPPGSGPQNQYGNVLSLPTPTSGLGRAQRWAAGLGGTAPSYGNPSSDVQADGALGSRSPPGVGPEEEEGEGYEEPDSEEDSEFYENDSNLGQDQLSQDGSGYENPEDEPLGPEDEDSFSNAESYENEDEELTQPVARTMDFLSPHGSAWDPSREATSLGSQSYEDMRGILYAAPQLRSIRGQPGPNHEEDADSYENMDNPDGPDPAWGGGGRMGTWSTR

[2] = biological target: T1, CD19 expressed on the cell surface; assay: flow cytometry on Daudi cells; Daudi cells (CD19+), flow cytometry
[3] = biological target: T2, recombinant CD19-His protein (human, UniProt P15391 20-291); assay: Octet (ForteBio) BLI, recombinant CD19-His immobilized on biosensor
T2 construct: Immobilized on the Octet biosensor; also called Human CD19
T2 sequence (looked up): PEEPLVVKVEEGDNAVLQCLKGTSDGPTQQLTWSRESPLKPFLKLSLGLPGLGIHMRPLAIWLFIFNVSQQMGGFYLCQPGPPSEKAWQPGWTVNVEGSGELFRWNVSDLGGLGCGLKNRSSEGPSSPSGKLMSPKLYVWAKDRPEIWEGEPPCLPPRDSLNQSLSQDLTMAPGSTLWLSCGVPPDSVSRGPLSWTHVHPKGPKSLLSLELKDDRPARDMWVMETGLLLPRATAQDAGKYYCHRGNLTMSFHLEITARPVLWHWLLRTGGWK
Description: A heterodimer lacking CD19scFv was used as a negative control.

B1: BTN2A1/3A1-Fc-CD19scFv GADLEN protein (heterodimer with charged polarized linkers) (Fc fusion)
chain 1: QFIVVGPTDPILATVGENTTLRCHLSPEKNAEDMEVRWFRSQFSPAVFVYKGGRERTEEQMEEYRGRTTFVSKDISRGSVALVIHNITAQENGTYRCYFQEGRSYDEAILHLVVAGLGSKPLISMRGHEDGGIRLECISRGWYPKPLTVWRDPYGGVAPALKEVSMPDADGLFMVTTAVIIRDKSVRNMSCSINNTLLGQKKESVIFIPESFMPSVSPCAGSGSRKGGKRGSKYGPPCPPCPAPEFLGGPSVFLFPPKPKDQLMISRTPEVTCVVVDVSQEDPEVQFNWYVDGVEVHNAKTKPREEQFNSTYRVVSVLTVLHQDWLSGKEYKCKVSSKGLPSSIEKTISNATGQPREPQVYTLPPSQEEMTKNQVSLTCLVKGFYPSDIAVEWESNGQPENNYKTTPPVLDSDGSFFLYSRLTVDKSRWQEGNVFSCSVLHEALHNHYTQKSLSLSLGKDEGGEDGSDIQMTQTTSSLSASLGDRVTISCRASQDISKYLNWYQQKPDGTVKLLIYHTSRLHSGVPSRFSGSGSGTDYSLTISNLEQEDIATYFCQQGNTLPYTFGGGTKLEITGGGSGGGSGGGSEVKLQESGPGLVAPSQSLSVTCTVSGVSLPDYGVSWIRQPPRKGLEWLGVIWGSETTYYNSALKSRLTIIKDNSKSQVFLKMNSLQTDDTAIYYCAKHYYYGGSYAMDYWGQGTSVTVSS
chain 2: not shown
notes: The residue ranges were counted from the printed parts; also called BTN2A1/3A1-Fc-CD19scFv heterodimeric protein; human BTN2A1/3A1-Fc-CD19scFv GADLEN protein
Question: What does the source list for B1?
Answer: EC50 [1]: 0.89 nM; EC50 [2]: 5 nM; Kd [3]: 13.8 nM
